Data on one substance can be found in US20200140532A1.

Several values for one entry are separate records, joined by “and”; a condition that tells them apart may be missing. Equal entries are not always repeated.

What all share (assay): periplasmic extract ELISA, control
Test [1] concerns the target recombinant cynomolgus Aggrecan G1-IGD-G2 (cynomolgus).
The target of test [2] is recombinant rat Aggrecan G1-IGD-G2 (rat) (UniProt P07897).
For test [3], the target named is recombinant bovine Aggrecan G1-IGD-G2 (bovine) (UniProt P13608).
In test [4] the target is recombinant human Aggrecan G1-IGD-G2 (human) (UniProt P16112).
Test [5] has as its target recombinant dog Aggrecan G1-IGD-G2 (dog) (UniProt Q28343).

As for cAbLys3 (VHH), the OD 450 nm in test [1] is 0.06 OD 450 nm and 0.05 OD 450 nm; in test [2] it was 0.06 OD 450 nm; in test [3], 0.05 OD 450 nm and 0.06 OD 450 nm; in test [4], 0.05 OD 450 nm; in test [5], 0.06 OD 450 nm.
